In publication PMC11575451 (The Journal of Cell Biology, 2024):

Target: T1, FLAG-HA-RTN3L (human, UniProt O95197 1-1032)
T1 sequence (looked up): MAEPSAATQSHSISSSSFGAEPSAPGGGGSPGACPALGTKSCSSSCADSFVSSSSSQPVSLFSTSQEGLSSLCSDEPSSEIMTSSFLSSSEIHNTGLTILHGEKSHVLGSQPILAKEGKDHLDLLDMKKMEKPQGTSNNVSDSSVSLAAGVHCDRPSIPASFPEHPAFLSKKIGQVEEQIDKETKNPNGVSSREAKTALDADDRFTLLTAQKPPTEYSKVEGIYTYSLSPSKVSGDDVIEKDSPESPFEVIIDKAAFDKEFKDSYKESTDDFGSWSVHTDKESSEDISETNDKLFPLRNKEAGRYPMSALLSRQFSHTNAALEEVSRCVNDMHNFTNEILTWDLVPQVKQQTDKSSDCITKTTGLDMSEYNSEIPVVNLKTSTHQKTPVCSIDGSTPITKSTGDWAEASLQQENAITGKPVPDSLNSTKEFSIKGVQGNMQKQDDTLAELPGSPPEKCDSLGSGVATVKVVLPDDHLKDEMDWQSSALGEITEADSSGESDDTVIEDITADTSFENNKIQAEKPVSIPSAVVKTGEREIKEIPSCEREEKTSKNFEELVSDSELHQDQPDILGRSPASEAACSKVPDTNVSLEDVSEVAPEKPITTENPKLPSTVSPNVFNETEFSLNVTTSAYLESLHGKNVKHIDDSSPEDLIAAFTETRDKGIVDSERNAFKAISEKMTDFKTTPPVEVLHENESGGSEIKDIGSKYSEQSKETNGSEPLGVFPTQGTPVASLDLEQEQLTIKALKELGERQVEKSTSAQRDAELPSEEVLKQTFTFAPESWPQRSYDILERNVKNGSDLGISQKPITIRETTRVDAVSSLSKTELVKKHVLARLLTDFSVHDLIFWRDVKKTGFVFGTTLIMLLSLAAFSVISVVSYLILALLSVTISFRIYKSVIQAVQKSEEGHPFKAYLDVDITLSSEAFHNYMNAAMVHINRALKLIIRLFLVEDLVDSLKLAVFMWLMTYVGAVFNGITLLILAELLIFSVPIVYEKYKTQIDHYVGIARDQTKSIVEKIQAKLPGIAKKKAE
Experiment: co-IP

PEF1 precipitated in the tagged sample relative to the untagged control: 4.8 x
B1: PEF1 (natural protein, human (endogenous in U2OS), UniProt Q9UBV8 1-284, looked up)
chain: MASYPYRQGCPGAAGQAPGAPPGSYYPGPPNSGGQYGSGLPPGGGYGGPAPGGPYGPPAGGGPYGHPNPGMFPSGTPGGPYGGAAPGGPYGQPPPSSYGAQQPGLYGQGGAPPNVDPEAYSWFQSVDSDHSGYISMKELKQALVNCNWSSFNDETCLMMINMFDKTKSGRIDVYGFSALWKFIQQWKNLFQQYDRDRSGSISYTELQQALSQMGYNLSPQFTQLLVSRYCPRSANPAMQLDRFIQVCTQLQVLTEAFREKDTAVQGNIRLSFEDFVTMTASRML
